# The supplement of paper PMC7125110
# ± gives the standard error. This sample holds only a part of the variants without activity.
# B1: glmS ribozyme (parent)
# chain: AUAAAAGCGCCAGAACUACAGAAAUGUAGUUGACGAGGAGGAGGUUUAUCGAAUUUUCGGCGGAUGCCUCCAAA
# How the values were obtained:
# Conditions in all cases: with glucosamine-6-phosphate
# [1] = variants of: B1; assay: self-cleavage kobs at 40 uM GlcN6P; higher = faster cleavage; RNA array
# Method in brief: (§1)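 Weighted Michaelis–Menten fits across concentrations supplied kcat and KM, based on kobs from one- or two-exponential decay fits to normalised per-tile medians. The data came from barcoded ribozyme variants transcribed in situ by E. coli RNA polymerase on sequenced MiSeq chips and tracked at 37 °C by a hybridised Cy3 probe. Glucosamine-6-phosphate (40 μM to 10 mM) in HEPES/KCl/Mg(OAc)2 buffer was flowed in.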
# [2] = variants of: B1; assay: self-cleavage kobs at 2500 uM GlcN6P; higher = faster cleavage; RNA array
# Method in brief: as §1
# [3] = variants of: B1; assay: self-cleavage kobs at 10000 uM GlcN6P; higher = faster cleavage; RNA array
# Method in brief: as §1
# [4] = variants of: B1; assay: self-cleavage kobs at 640 uM GlcN6P; higher = faster cleavage; RNA array
# Method in brief: as §1
# [5] = variants of: B1; assay: self-cleavage kobs at 160 uM GlcN6P; higher = faster cleavage; RNA array
# Method in brief: as §1
variant,measurement,setting,value
A48G G63U,self-cleavage kobs at 40 uM GlcN6P,[1],< 1e-05 s⁻¹
same,self-cleavage kobs at 2500 uM GlcN6P,[2],< 1e-05 s⁻¹
same,self-cleavage kobs at 10000 uM GlcN6P,[3],< 1e-05 s⁻¹
C50U C61U,self-cleavage kobs at 40 uM GlcN6P,[1],< 1e-05 s⁻¹
same,self-cleavage kobs at 640 uM GlcN6P,[4],< 1e-05 s⁻¹
same,self-cleavage kobs at 2500 uM GlcN6P,[2],< 1e-05 s⁻¹
same,self-cleavage kobs at 10000 uM GlcN6P,[3],< 1e-05 s⁻¹
U54G U56C,self-cleavage kobs at 40 uM GlcN6P,[1],6.58e-05 ± 1.3e-05 s⁻¹
same,self-cleavage kobs at 160 uM GlcN6P,[5],0.000146 ± 2.8e-05 s⁻¹
same,self-cleavage kobs at 640 uM GlcN6P,[4],0.000986 ± 0.00024 s⁻¹
same,self-cleavage kobs at 2500 uM GlcN6P,[2],0.00123 ± 0.00029 s⁻¹
same,self-cleavage kobs at 10000 uM GlcN6P,[3],0.00518 ± 0.0011 s⁻¹
A48U G60C C61U,self-cleavage kobs at 40 uM GlcN6P,[1],< 1e-05 s⁻¹
same,self-cleavage kobs at 640 uM GlcN6P,[4],< 1e-05 s⁻¹
A48G C50G C61G,self-cleavage kobs at 40 uM GlcN6P,[1],0.000172 ± 6.6e-05 s⁻¹
same,self-cleavage kobs at 10000 uM GlcN6P,[3],0.000127 ± 3.7e-05 s⁻¹
A48U G62U C68G,self-cleavage kobs at 40 uM GlcN6P,[1],< 1e-05 s⁻¹
U49C A52C,self-cleavage kobs at 40 uM GlcN6P,[1],< 1e-05 s⁻¹
same,self-cleavage kobs at 160 uM GlcN6P,[5],< 1e-05 s⁻¹
same,self-cleavage kobs at 2500 uM GlcN6P,[2],< 1e-05 s⁻¹
same,self-cleavage kobs at 10000 uM GlcN6P,[3],< 1e-05 s⁻¹
G59A G60U C61A,self-cleavage kobs at 40 uM GlcN6P,[1],< 1e-05 s⁻¹
same,self-cleavage kobs at 640 uM GlcN6P,[4],< 1e-05 s⁻¹
same,self-cleavage kobs at 2500 uM GlcN6P,[2],< 1e-05 s⁻¹
G51C U57C C70G,self-cleavage kobs at 40 uM GlcN6P,[1],< 1e-05 s⁻¹
U55G U65A C67A,self-cleavage kobs at 40 uM GlcN6P,[1],6.53e-05 ± 1.8e-05 s⁻¹
same,self-cleavage kobs at 10000 uM GlcN6P,[3],9.95e-05 ± 3e-05 s⁻¹
G59C C67G C70G,self-cleavage kobs at 40 uM GlcN6P,[1],< 1e-05 s⁻¹
U49C C61A C70U,self-cleavage kobs at 40 uM GlcN6P,[1],< 1e-05 s⁻¹
same,self-cleavage kobs at 10000 uM GlcN6P,[3],< 1e-05 s⁻¹
A48C C67U C71A,self-cleavage kobs at 40 uM GlcN6P,[1],< 1e-05 s⁻¹
same,self-cleavage kobs at 10000 uM GlcN6P,[3],< 1e-05 s⁻¹
U55A C67U,self-cleavage kobs at 40 uM GlcN6P,[1],0.000401 ± 8.2e-05 s⁻¹
same,self-cleavage kobs at 160 uM GlcN6P,[5],0.000667 ± 0.00022 s⁻¹
same,self-cleavage kobs at 640 uM GlcN6P,[4],0.00589 ± 0.0022 s⁻¹
same,self-cleavage kobs at 10000 uM GlcN6P,[3],0.0154 ± 0.0038 s⁻¹
U55A C67A,self-cleavage kobs at 40 uM GlcN6P,[1],0.000444 ± 0.00015 s⁻¹
same,self-cleavage kobs at 640 uM GlcN6P,[4],0.00115 ± 0.00052 s⁻¹
same,self-cleavage kobs at 10000 uM GlcN6P,[3],0.00563 ± 0.0018 s⁻¹
A53U C71A,self-cleavage kobs at 40 uM GlcN6P,[1],0.000169 ± 1.6e-05 s⁻¹
same,self-cleavage kobs at 160 uM GlcN6P,[5],0.000145 ± 3.8e-05 s⁻¹
same,self-cleavage kobs at 640 uM GlcN6P,[4],0.00145 ± 0.00029 s⁻¹
same,self-cleavage kobs at 10000 uM GlcN6P,[3],0.00487 ± 0.00058 s⁻¹
A52C U55A,self-cleavage kobs at 40 uM GlcN6P,[1],< 1e-05 s⁻¹
same,self-cleavage kobs at 10000 uM GlcN6P,[3],3.4e-05 ± 1.3e-05 s⁻¹
A52C C68G,self-cleavage kobs at 40 uM GlcN6P,[1],4.36e-05 ± 1.5e-05 s⁻¹
same,self-cleavage kobs at 640 uM GlcN6P,[4],0.000126 ± 3.5e-05 s⁻¹
same,self-cleavage kobs at 10000 uM GlcN6P,[3],2.34e-05 ± 1.1e-05 s⁻¹
U55G U57G C67U,self-cleavage kobs at 40 uM GlcN6P,[1],< 1e-05 s⁻¹
U49C G59C,self-cleavage kobs at 40 uM GlcN6P,[1],< 1e-05 s⁻¹
same,self-cleavage kobs at 2500 uM GlcN6P,[2],< 1e-05 s⁻¹
same,self-cleavage kobs at 10000 uM GlcN6P,[3],< 1e-05 s⁻¹
U57A U65C,self-cleavage kobs at 40 uM GlcN6P,[1],< 1e-05 s⁻¹
same,self-cleavage kobs at 640 uM GlcN6P,[4],< 1e-05 s⁻¹
A48G C61U G66C C70U,self-cleavage kobs at 40 uM GlcN6P,[1],< 1e-05 s⁻¹
G59U A64U,self-cleavage kobs at 40 uM GlcN6P,[1],< 1e-05 s⁻¹
same,self-cleavage kobs at 640 uM GlcN6P,[4],< 1e-05 s⁻¹
same,self-cleavage kobs at 2500 uM GlcN6P,[2],< 1e-05 s⁻¹
same,self-cleavage kobs at 10000 uM GlcN6P,[3],< 1e-05 s⁻¹
G59U C61A,self-cleavage kobs at 40 uM GlcN6P,[1],< 1e-05 s⁻¹
same,self-cleavage kobs at 160 uM GlcN6P,[5],< 1e-05 s⁻¹
same,self-cleavage kobs at 640 uM GlcN6P,[4],< 1e-05 s⁻¹
same,self-cleavage kobs at 10000 uM GlcN6P,[3],< 1e-05 s⁻¹
G59U C61U,self-cleavage kobs at 40 uM GlcN6P,[1],< 1e-05 s⁻¹
same,self-cleavage kobs at 640 uM GlcN6P,[4],< 1e-05 s⁻¹
same,self-cleavage kobs at 10000 uM GlcN6P,[3],< 1e-05 s⁻¹
